Laboratory results taken from patent US20210017257A1 (XBIOTECH, published 2021).

Molecular target: T1, Staphylococcus aureus protein A (SpA), commercial wildtype (Staphylococcus aureus, UniProt A0A0H3K686 37-477, limits assumed)
T1 construct: also called wildtype SpA; antigen
Assay: Bio-Layer Interferometry (ForteBio Octet Red 96), 20 nM antigen; BLI, 20 nM antigen

T1 sequence (A0A0H3K686 37-477 limits assumed): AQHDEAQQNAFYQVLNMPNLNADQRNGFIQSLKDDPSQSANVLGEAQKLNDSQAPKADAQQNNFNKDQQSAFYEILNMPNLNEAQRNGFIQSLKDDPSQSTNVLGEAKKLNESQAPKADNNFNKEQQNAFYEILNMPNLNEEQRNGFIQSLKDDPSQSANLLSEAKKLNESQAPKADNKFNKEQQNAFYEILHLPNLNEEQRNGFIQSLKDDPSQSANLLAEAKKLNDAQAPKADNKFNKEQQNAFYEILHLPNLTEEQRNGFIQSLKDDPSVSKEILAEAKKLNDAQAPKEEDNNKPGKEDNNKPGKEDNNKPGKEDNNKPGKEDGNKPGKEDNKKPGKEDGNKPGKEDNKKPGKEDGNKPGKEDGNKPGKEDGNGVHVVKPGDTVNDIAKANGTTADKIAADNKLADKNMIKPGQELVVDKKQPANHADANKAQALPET

B1: PA21-G3 Ab (antibody, human IgG3, kappa)
heavy: EVQLVESGGGVVQPGGSLRLSCAASGFTFSSYGMHWVRQAPGKGLEWVSGISGDAGSTYYADSVKGRFTISRDNSKNTLYLQMNSLRAEDMAVYYCARVMNYYGPGSAFDYWGQGTLVTVSSASTKGPSVFPLAPCSRSTSGGTAALGCLVKDYFPEPVTVSWNSGALTSGVHTFPAVLQSSGLYSLSSVVTVPSSSLGTQTYTCNVNHKPSNTKVDKRVELKTPLGDTTHTCPRCPEPKSCDTPPPCPRCPEPKSCDTPPPCPRCPEPKSCDTPPPCPRCPAPELLGGPSVFLFPPKPKDTLMISRTPEVTCVVVDVSHEDPEVQFKWYVDGVEVHNAKTKPREEQYNSTFRVVSVLTVLHQDWLNGKEYKCKVSNKALPAPIEKTISKTKGQPREPQVYTLPPSREEMTKNQVSLTCLVKGFYPSDIAVEWESSGQPENNYNTTPPMLDSDGSFFLYSKLTVDKSRWQQGNIFSCSVMHEALHNRFTQKSLSLSPGK
light: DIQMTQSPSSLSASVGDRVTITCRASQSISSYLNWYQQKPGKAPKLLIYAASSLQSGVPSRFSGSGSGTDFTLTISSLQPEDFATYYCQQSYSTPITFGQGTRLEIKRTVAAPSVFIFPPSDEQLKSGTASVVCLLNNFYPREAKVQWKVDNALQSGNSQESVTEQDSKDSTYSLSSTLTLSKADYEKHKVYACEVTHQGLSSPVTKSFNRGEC
notes: Human IgG3
With B1 the Kd was < 1 pM.

B2: PA15-G3 Ab (antibody, human IgG3, kappa)
heavy: EVQLVETGGGLVRPGGSLRLSCAASGLTFSTFAMNWVRQAPGKGLEWVSSISGSGGSTYYADSVKGRFTISRDNAKNTVYLQMNSLRAEDTAVYYCARDFNWDSGTMDLWGQGTTVTVSPASTKGPSVFPLAPCSRSTSGGTAALGCLVKDYFPEPVTVSWNSGALTSGVHTFPAVLQSSGLYSLSSVVTVPSSSLGTQTYTCNVNHKPSNTKVDKRVELKTPLGDTTHTCPRCPEPKSCDTPPPCPRCPEPKSCDTPPPCPRCPEPKSCDTPPPCPRCPAPELLGGPSVFLFPPKPKDTLMISRTPEVTCVVVDVSHEDPEVQFKWYVDGVEVHNAKTKPREEQYNSTFRVVSVLTVLHQDWLNGKEYKCKVSNKALPAPIEKTISKTKGQPREPQVYTLPPSREEMTKNQVSLTCLVKGFYPSDIAVEWESSGQPENNYNTTPPMLDSDGSFFLYSKLTVDKSRWQQGNIFSCSVMHEALHNRFTQKSLSLSPGK
light: not shown
notes: Human IgG3
For B2, the Kd was < 1 pM.

B3: PA32-G3 Ab (antibody, human IgG3, kappa)
heavy: EVQLVETGGGLAQPGGSLRLSCAASGFIFSDYYMDWVRQAPGKGPEWVASIKADGSETHYVDSVKGRFTISRDNAKNSLYLQMNSLRVEDTAVYYCGRDPGRRFDYWGQGTLVTVSSASTKGPSVFPLAPCSRSTSGGTAALGCLVKDYFPEPVTVSWNSGALTSGVHTFPAVLQSSGLYSLSSVVTVPSSSLGTQTYTCNVNHKPSNTKVDKRVELKTPLGDTTHTCPRCPEPKSCDTPPPCPRCPEPKSCDTPPPCPRCPEPKSCDTPPPCPRCPAPELLGGPSVFLFPPKPKDTLMISRTPEVTCVVVDVSHEDPEVQFKWYVDGVEVHNAKTKPREEQYNSTFRVVSVLTVLHQDWLNGKEYKCKVSNKALPAPIEKTISKTKGQPREPQVYTLPPSREEMTKNQVSLTCLVKGFYPSDIAVEWESSGQPENNYNTTPPMLDSDGSFFLYSKLTVDKSRWQQGNIFSCSVMHEALHNRFTQKSLSLSPGK
light: not shown
notes: Human IgG3
With B3 the Kd was < 1 pM.

B4: PA7.2-G3 Ab (antibody, human IgG3, kappa)
heavy: EVQLVESRGGLVQPGGSLRLSCAASGFTFSNYAMSWVRQAPGKGLEWVSTISGSDGGTYYADSVKGRFTISRDNSGNTVYLQMNSLREDDTAVYYCARVGLSAPVTFFDFWGQGTLVTVSSASTKGPSVFPLAPCSRSTSGGTAALGCLVKDYFPEPVTVSWNSGALTSGVHTFPAVLQSSGLYSLSSVVTVPSSSLGTQTYTCNVNHKPSNTKVDKRVELKTPLGDTTHTCPRCPEPKSCDTPPPCPRCPEPKSCDTPPPCPRCPEPKSCDTPPPCPRCPAPELLGGPSVFLFPPKPKDTLMISRTPEVTCVVVDVSHEDPEVQFKWYVDGVEVHNAKTKPREEQYNSTFRVVSVLTVLHQDWLNGKEYKCKVSNKALPAPIEKTISKTKGQPREPQVYTLPPSREEMTKNQVSLTCLVKGFYPSDIAVEWESSGQPENNYNTTPPMLDSDGSFFLYSKLTVDKSRWQQGNIFSCSVMHEALHNRFTQKSLSLSPGK
light: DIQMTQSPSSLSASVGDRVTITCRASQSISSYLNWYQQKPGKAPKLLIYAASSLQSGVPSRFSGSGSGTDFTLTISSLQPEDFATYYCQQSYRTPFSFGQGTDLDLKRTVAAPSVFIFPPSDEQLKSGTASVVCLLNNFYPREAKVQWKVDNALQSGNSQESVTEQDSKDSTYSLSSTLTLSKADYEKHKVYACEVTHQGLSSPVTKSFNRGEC
notes: Human IgG3
B4 was tested, and the Kd was < 1 pM.

B5: PA37-G3 Ab (antibody, human IgG3, kappa)
heavy: EVQLLESGGGLVQPGGSRRLSCATSGLSFSSYAMNWVRQAPGKGLEWVSAISGSGDITHYADSVKGRLTISRDNSKNTVYLQMNSLRGEDTAVYYCAKGPWLAPGGWFDPWGQGTLVTVSSASTKGPSVFPLAPCSRSTSGGTAALGCLVKDYFPEPVTVSWNSGALTSGVHTFPAVLQSSGLYSLSSVVTVPSSSLGTQTYTCNVNHKPSNTKVDKRVELKTPLGDTTHTCPRCPEPKSCDTPPPCPRCPEPKSCDTPPPCPRCPEPKSCDTPPPCPRCPAPELLGGPSVFLFPPKPKDTLMISRTPEVTCVVVDVSHEDPEVQFKWYVDGVEVHNAKTKPREEQYNSTFRVVSVLTVLHQDWLNGKEYKCKVSNKALPAPIEKTISKTKGQPREPQVYTLPPSREEMTKNQVSLTCLVKGFYPSDIAVEWESSGQPENNYNTTPPMLDSDGSFFLYSKLTVDKSRWQQGNIFSCSVMHEALHNRFTQKSLSLSPGK
light: not shown
notes: Human IgG3
With B5 the Kd was < 1 pM.

B6: PA27-G3 Ab (antibody, human IgG3, kappa)
heavy: QVQLVESGGGLVQPGGSLRLSCAASGFTFSKYGMSWVRQAPGKGLEWVSTISGSGFTTYYADSVKGRFTISRDDFKNTLYLQMNSLRAEDTAVYYCAKDGWDYEDFFGSWGQGTLVTVSSASTKGPSVFPLAPCSRSTSGGTAALGCLVKDYFPEPVTVSWNSGALTSGVHTFPAVLQSSGLYSLSSVVTVPSSSLGTQTYTCNVNHKPSNTKVDKRVELKTPLGDTTHTCPRCPEPKSCDTPPPCPRCPEPKSCDTPPPCPRCPEPKSCDTPPPCPRCPAPELLGGPSVFLFPPKPKDTLMISRTPEVTCVVVDVSHEDPEVQFKWYVDGVEVHNAKTKPREEQYNSTFRVVSVLTVLHQDWLNGKEYKCKVSNKALPAPIEKTISKTKGQPREPQVYTLPPSREEMTKNQVSLTCLVKGFYPSDIAVEWESSGQPENNYNTTPPMLDSDGSFFLYSKLTVDKSRWQQGNIFSCSVMHEALHNRFTQKSLSLSPGK
light: DIQMTQSPSSLSASVGDRVTITCRASQSISSYLNWYQQKPGKAPKLLIYAASSLQSGVPSRFSGSGSGTEFTLTITNLQPEDFGTYYCQQSYAFPYTFGQGTRLEIKRTVAAPSVFIFPPSDEQLKSGTASVVCLLNNFYPREAKVQWKVDNALQSGNSQESVTEQDSKDSTYSLSSTLTLSKADYEKHKVYACEVTHQGLSSPVTKSFNRGEC
notes: Human IgG3
In the case of B6, the Kd is reported as < 1 pM.
